Assay: soluble on expression in E. coli; label from the status in PepcDB or PDB records
In the case of “MAHHHHHHMSGRCFSKSLESDVDSAAAAESSLSATEVSTDGYRTGKQPRHVAFLLEKDLKETDTEEVPRAAFAGRRGGAGARPTEEQWSWSGRAEADALRQRALQCGEDFVRVASGLGYEVVAHTPTAFLKRGMTEKTAALFGVAQPEKQGGTGLAVARSATARASTGAVLLSSPSAAETTVTLAAPFSSGGSSVFPRKGELDSCSSRSSSPGTEDQVGMVPVLSPLLQGSEPGQRRLSTDASLRALEVQTPRTTGAHAGVYRYPATIASLHPLQDSTPNSVADGNGVHTSPHRSSRTGFGAEHHANDGANPPGPAIANSTRAVHWTPTTRHPSPSRGSPASHRALTPRTVFPTGNHPVTASLMVPGQQSDAFAVRLSIMDVTSSRTNSNTNTSMSTEHLNGHEFVNVGGSQNTNNRFFTSSTDALNTPAVRMTDDEDWLRATGRLIQ”, the “soluble on expression in E. coli” value is reported as “not soluble”. With “MSLTEYVHGYSEREALRLSEQAETLEKLLHHDTVYPPGAKVLEAGCGIGAQTVILAKNNPDAEITSIDISPESLEKARENTEKNGIKNVKFLQANIFSLPFEDSSFDHIFVCFVLEHLQSPEEALKSLKKVLKPGGTITVIEGDHGSCYFHPEGKKAIEAWNCLIRVQAYMKGNSLVGRQIYPLLQESGFEKIRVEPRMVYIDSSKPELVDGFILKTIIPMVEGVKEQSLKMQIIKEEEWEKGIEELHKTAEHGGTFCYTFFKGWGTKEGHHHHHH” the “soluble on expression in E. coli” value was “soluble”. With “MAHHHHHHMFRDGYSLDSVCHRLRYEIGVPHDGVYLHEPPGGSFAAVTQFGVAVGVTREQLPHASRHYNVHALIFDDRGYHALDELPRLSVAPQAYLHRILLRCVSGDEAAVAQRLRHLSSNGFINYFGLESFGIGSNTLFDMAAFAFRREPHRSVGAYLQTLAECSPLHHQPYLSYANAEESTVAGAVAEWLRVCERAKLPRETRELLRKLHCYHLSQCHPSDATTISMEDVWKACPIMHRAEQSAAAFVWNAMASQRLLSFGSRPVKGDLVCRIGNRGAIEIAEVASDTDASHYTIDDVVLPIPCGGTPAAELRYPTHSVNEAFFTQFAKKHSLSFLFNSGVDPTPRAAATLGPYRRLVSRPRNLQAAVLQDPSSCAALKSDLFLLQEHQPTEGWSLDYRQRVREPSNFNVSERFRERMSCIRKRRAGEHSVALAFVLPAGSSPWVALREAFHMHYGTFHDFYGVS” the “soluble on expression in E. coli” value was “not soluble”. In the case of “MGSDKIHHHHHHMTTINAANAGTYAFDDQFKVNRMGYGVMQLTGPGTWGPYADPENGVKVVKKALEYGVNFFDTADSYGPWFADRYLAAGLKDAANRDQIFISDKVGQTRQGPNVWTPLGEPRYLRQQVEVSMMTLGIDHEDLVFLHRIDPHYSIADQVGELKKLQDEGKIKHIGLSQVTVDQIKEAQQVAKIDAIENLYNVANHGDDDVVDYAASQKMAFLPWFPLATGELAQAGSVLSTMAQKYQVSPAQIALAWLLKRSDNIIPIPGTSSIEHLRDNVAAANVDLTTADFNGLSQLSVK”, the “soluble on expression in E. coli” value is reported as “not soluble”. In the case of “MGSDKIHHHHHHMSFSNEMKVFSGNANRPLAEKIANYLNLQLGDCEVGRFADGEINVRINETVRGHDIFLIQPTSPPVNENLMELLIMIDAFKRASANTIAVVIPYYGYARQDRKAKGRDPISAKLVANLITVAGATRVLTVDLHAEQIQGFFDIPVDNLWSYPVFAEELLKRENIVPEETVVVSPDVGGVRRARRMAERLGTSLAILDKRRPSDNVAEVVNIIGEVEDKVVIMFDDIIDTAHSIVKGAEALKNAGAKRIIACATHGVFSDRALERIENSSIDTVYITDTIYHENLPEKVKVISVANLIGEAIMRIRKHLSVSTLFR”, the “soluble on expression in E. coli” value is reported as “not soluble”. In the case of “MSLTELTGNPRHDQLLMLIAERGYMNIDELANLLDVSTQTVRRDIRKLSEQGLITRHHGGAGRASSVVNTAFEQREVSQTEKKKAIAEAVADYIPDGSTIFITIGTTVEHVARALLNHNHLRIITNSLRVAHILYHNPRFEVMVPGGTLRSHNSGIIGPSAASFVADFRADYLVTSVGAIESDGALMEFDVNEANVVKTMMAHARNILLVADHTKYHASAAVEIGNVAQVTALFTDELPPAALKSRLQDSQIEIILPQEDALEHHHHHH”, the “soluble on expression in E. coli” value is reported as “soluble”. For “MSLTRATKGFLSKSLPKASEATPGSQSSDYIPLVSLQLASGAFLLNEAFCTTIQIPMEKLKWTSPFSCLRMSLVTRRQDLKTQSPQDCTSLSSSPPSCDGISLKSEESSDQESNAMLEHMGKLWATVVALAWLEHSSANYIIEWELVAAKASSWVEKQKVPEGRTLSTLKNTARQLFVLLRHWDEKLEFNMLCYNPNYVEGHHHHHH”, the “soluble on expression in E. coli” value was “not soluble”. In the case of “MGSDKIHHHHHHMLDRKLLESLGGWQGYGVERVEWPEDPGRTLSIYLKPTAKVMLCEQCGARCRQVHETTVRRVRDLPLFEYRVVLHVPRRRLWCEQCGGPRLERLAWLGRYQRVTDRLAQACSQLLQSSNVQAVARFFELGWHTVKTLDKARLRASVREPDWSKIEYLAMDEFALHKGHRYATVVVDPIGRQVLWIGPGRSRETARAFFEQLPPGAAQRIKAVAIDMTTAYELEIQAHSPQAEIVYDLFHVVAKYGREVIDRVRVDQANQLRQDRPARRIIKSSRWLLLRNRDNLDRQQAVRLDELLQANQPLLTVYVLRDELKRLWFYQRPAWARQAWNHWYEQAEQSGIAALNTFAQRLKGYLHGILARCRHPLNTSIVEGINNTIKVIKRRAYGYRDQEYFFLKIRAAFPGNAR”, the “soluble on expression in E. coli” value is reported as “not soluble”. With “MSLQLADAQADLPYIHGFSAAEQARLVRQARFSEAMVYRDVDFSGVQKLLEVGCGVGAQTEILLRRFPDVGITGLDFSQRQLAVARQRLQGSPYHDRATLLHMDAEDLDFPPASFDGAFLCWILEHVHSPERVLAEVRRVLKPGARLYATEAMNATFFLAPYSANLQQYWLAFNDHQLSVGGDPFVGAKLGNILMRLGFRHVETKVKTWHLDSREPHRRQQVLDYWAELLLSAADQLIEAGRVDAELVDSMTRELRLLRSNPELVFFYSFMQASAVVEGHHHHHH” the “soluble on expression in E. coli” value was “soluble”. With “MAAEKTLRTCEKGHEYYKSSDCPTCPTCEKERTPQEGFLSLLSAPARRALEHHGIHTVEELSKYSEKEILKLHGMGPASLPKLRKALEESGLSFK” the “soluble on expression in E. coli” value was “not soluble”. In the case of “MAHHHHHHMNPLYTDSISYSASDANITLPQQSMPQWANTNATASRVSAAPATAGEQAQQGNFASSLNSAGGFSVHVGSDAARSTLCSPKIATESLTAAAATTTTTKATTAVRRAPFLNPPPQQPLSGTRNRLSAPGSPAMYRSGPPIGFGGGPNYYYQYGGNTFIQDGKQQENEYYPPLPMSTPFHPVTAITKLVPLPHPKTGRGGIPAIFRFWGPIGSPAPRTPVPVPSLPNAGGVAATVFLAAIPISLVPQQMHPLSPRHPATGGSPAASSPLGGGESMGMSLVEVHHHSNGSSLGAGSPTAPAITPAPATAAAGASAVNLTVRVRRRTGGGNTAAIRVGGGASLAPLQLPSQGTSSLGASLTTLATTGPAKGPGTPFKHSPITPSNLPPAPLFAQSAPAQLLVDDSGSQRLSPTSMLPTNLVNEGSKTKGESVLRVDEDTYMQREAFRWNPYASTKWAQNRSNSTGASTSDSRGRLPVEGGSGSG”, the “soluble on expression in E. coli” value is reported as “soluble”. For “MGSDKIHHHHHHMKLIWLGHGGFRLETGETTLLIDPWLTGNPMLEDSQHDAATQGATHILLTHAHFDHVADVLELAKHLSVPIVGQYDLMGYWGETEGVQTVGFNKGGTVTVGDTRVSMVPASHSNTFSTRDGLRTAGSEVGYMIRAEGKTLYVSGDTDIMADMDWMGDYYKPEIGILSAGGHFTMDMKAAAYAAQRYFAFKTVIPCHYRTFPLLEQSAQDLIDGLPGVNVIEPQIMKDIEL”, the “soluble on expression in E. coli” value was “not soluble”. For “RSFGLIIPDLENTSYARLAKLIEQNSRKAGYQILIGCSDDDPETEKKVAEALISRRIDALFVASGMPSANEYYLKLQNSGTPVIALDRPMDDEHFCCVISEDFDAAFELTESVLSPEIKTIGLIGALQDLQVSKERELGFRSACQKDDTAMTVGYGLHFSREEGKKVLDKWVQADSLPDAIVTTSYTLLEGVLDVMLEKPELMSQVRLATFGDNRLLDFLPVKINSLPQQFELIADSAMELALNASAKRYKPGVELIPRKIVKRQ”, the “soluble on expression in E. coli” value was “not soluble”. With “MAHHHHHHMPAHRRYSSVSSSSSRAFSEPSDGGTSSVNDSNSYYSEGSGSYRSVSSVLASRSGAKTTAATTASSTSAVDSSSTNTFSDVLTTSSAYSHSSAPPRRAVTRPAASRSEAVGHKTTKGASGVVVADHNNTGVGETLAQRTASTFTAPTTASSVTVDGTDGLVRAPQSLMLQAALAPVSNRTANVARVKPCNVSEEELVHHPWAPVDCDTTVDASKEGGDRGGLALNVLDTIHTVPIAVPLPPEEAPRRREEGSPTYPSRLAFRVVPSSSPLRHSDSAVTEDKDGTGNGGGGAALGADGATAPRARKTSIACCCCCCLHGCGEKAPCNTKRYTATRQKPHHPLRSHHVPLVSFRTTREHGIPMEGVQNVLPSVEEAARYQNLKVDMMGTEEFPKLMRKAIQPRDRLAGGLRLEKSYAFGHGAGGGRGGAGQSAFVRDGDPQGFWIAHLHRCAIVRLEPIGAE” the “soluble on expression in E. coli” value was “not soluble”. For “MGSDKIHHHHHHMMGKTEYLDYYSGKRVLVTGGAGAVGSNLVRRLLDLGAFVIVIDNLSSGYTWLLPQDAPNLLFIEGDITNDVDLKRVFNEEPEIIFHLAAFFANQNSVDYPEKDLWVNGFGTLKLLEYTRIYGKVERFVYASSGCSIYPSDAPMPFKEDLPISSWMSTPYQITKALGELYCNYFYKMYDIPITKARFFNSFGPGEVPGQYRNVIPNFIYWAMLGKPLPITGTGEETRDFTYVGDIVDGLLRMGYYREAIGEAFNLAAGREVKIKYLAEKVNELTGNTAGIVFKPRRKWDTKPRMLASNEKAKKVLGFNPDPDFDGRLAETVEWFKQNWELIKKSAEFGPGVSSAVR”, the “soluble on expression in E. coli” value was “not soluble”. With “DVQITQSPSYLAASPGETITLNCRASKSISKYLAWYQEKPGKTNKLLIYSGSTLQSGIPSRFSGSGSGTDFTLTISSLEPEDFAMYFCQQHNEYPYTFGGGTKLEIKRTVAAPSVFIFPPSDEQLKSGTASVVCLLNNFYPREAKVQWKVDNALQSGNSQESVTEQDSKDSTYSLSSTLTLSKADYEKHKVYACEVTHQGLSSPVTKSFNRGEC” the “soluble on expression in E. coli” value was “soluble”. In the case of “MGSDKIHHHHHHMEFQCPLCRQRLHFHEESRGWHCDGKHHFDKKEIGYWDFYKGNKPRNAESRQELRARQFLVTSGLFQPAVEAMVKVLQTQDCGSERNCVNLGPGHAWIGKLLAQALSEHELPLKVFSPLESENEAFAAAKSGMEAVCLTPLKSLPFADASADMVWLLDIPAKGKEWQRILKPGGLLLMLAAGPRHLWQIKEFVYEGLTEKPFVLELSGQFDLISQTPVSWTHALSVADAKVLMGMAPWAWRVKEASLKAMEKGDFSGLEMDYRIILAKKRV”, the “soluble on expression in E. coli” value is reported as “not soluble”. In the case of “MGSDKIHHHHHHMERNEIEQLVAHGIFPYDQQAKTRLIETAISYILLKGSYAYKIKKNIKLSFLDFSTLEKRRHFCYEELRLNQRLAKDMYINVFAVSKKGKQWSISTGPAKAKEYVILMKGMNPDHQLNALLKKNRITKKPIRQLAQQLADFHQNEKSLSLTYDPFFLSREFADIEKFSSTIEKKLGVDYYKLVQTCIQLSNHFVLLQQEFISKRPCLGYFKNCHGDLHSQNIFIEKKPVIFDCIEFREAFRHIDVLNEIAFLCMDLETYGYADLSKIFLTDYIKKTGYAFGKKEQLLFTYFKAYRSCIRAKVHTIEMSQHPSSTQIKEKVKKYIEGMAGYMIEIAGKF”, the “soluble on expression in E. coli” value is reported as “not soluble”. With “GGSGGTSTAGNPNVNVPNNQITAKSKKEFIQQAMPIAKAIEEKWGVPAEVVIAQAALESGWGKHVKGNAYFGIKGKGSQGSINFGTHEVINGKKISINDNFASYGGFGDAANGYGEFLNKNKRYREAFKHKDNPVEFAKAIARAGYATDPDYANKLTKIIQSNKF” the “soluble on expression in E. coli” value was “not soluble”. For “KYIMHQTTPNYTVTLLAALLPWQFFQGAVQGSTTSIISNSNLIKKIYFPRQIMPLSI”, the “soluble on expression in E. coli” value was “not soluble”.

From the DeepSol protein solubility set
